Assay results from US20260167721A1 (ABLEXIS, published 2026).

Assays:
[1] = target: T1, human CD3 (TCR/CD3 complex) on the cell surface (human, UniProt P07766 23-207; P09693 23-182; P04234 22-171; P20963 22-164); assay: flow cytometry, Pan-T cells, 1 ug/mL
T1 construct: whole, on cells; also called CD3 on Pan-T cells; CD3 on Jurkat WT cells

[2] = target: T1, human CD3 (TCR/CD3 complex) on the cell …; assay: flow cytometry, Pan-T cells, 10 ug/mL
[3] = target: T1, human CD3 (TCR/CD3 complex) on the cell …; assay: flow cytometry, Jurkat WT cells, 1 ug/mL
[4] = target: T1, human CD3 (TCR/CD3 complex) on the cell …; assay: flow cytometry, Jurkat WT cells, 10 ug/mL
recombinant CD3 proteins [5] = target: T2, recombinant CD3 proteins (UniProt P07766 23-126); assay: Octet BLI, recombinant CD3; Full R^2 0.995
T2 construct: elsewhere it uses human CD3 E/D and E/G heterodimers
T2 sequence (P07766 23-126): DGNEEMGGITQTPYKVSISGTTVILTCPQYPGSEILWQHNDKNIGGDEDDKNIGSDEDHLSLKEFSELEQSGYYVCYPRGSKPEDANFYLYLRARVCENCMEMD

recombinant CD3 proteins [6] = target: T2, recombinant CD3 proteins; assay: Octet BLI, recombinant CD3; Full R^2 0.9943
[7] = target: T1, human CD3 (TCR/CD3 complex) on the cell …; assay: flow cytometry, gMFI Jurkat WT over Jurkat TCRb KO, 1 ug/mL
[8] = target: T1, human CD3 (TCR/CD3 complex) on the cell …; assay: flow cytometry, gMFI Jurkat WT over Jurkat TCRb KO, 10 ug/mL
recombinant CD3 proteins [9] = target: T2, recombinant CD3 proteins; assay: Octet BLI, recombinant CD3; Full R^2 0*
recombinant CD3 proteins [10] = target: T2, recombinant CD3 proteins; assay: Octet BLI, recombinant CD3; Full R^2 0.000*
[11] = target: T3, recombinant human CD3 epsilon/delta heterodimer (human, UniProt P07766 23-126; P04234 22-105); assay: Octet BLI, mAb on FAB2G sensor, hCD3 E/D 200-50 nM; R^2 0.99
T3 construct: Recombinant protein in solution (200-50 nM) in the Octet assay; also called hCD3 E/D; human CD3E/D
T3 sequence (P07766 23-126, stated change not applied, chain 1 of 2): as the sequence (P07766 23-126) above
T3 sequence (P04234 22-105, stated change not applied, chain 2 of 2): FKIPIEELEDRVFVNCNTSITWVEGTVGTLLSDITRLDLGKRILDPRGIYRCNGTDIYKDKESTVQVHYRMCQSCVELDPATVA

[12] = target: T4, recombinant human CD3 epsilon/gamma heterodimer (human, UniProt P07766 23-126; P09693 23-116); assay: Octet BLI, mAb on FAB2G sensor, hCD3 E/G 200-50 nM; R^2 0.63
T4 construct: Recombinant protein in solution (200-50 nM) in the Octet assay; also called hCD3 E/G
T4 sequence (P07766 23-126, chain 1 of 2): as the sequence (P07766 23-126) above
T4 sequence (P09693 23-116, chain 2 of 2): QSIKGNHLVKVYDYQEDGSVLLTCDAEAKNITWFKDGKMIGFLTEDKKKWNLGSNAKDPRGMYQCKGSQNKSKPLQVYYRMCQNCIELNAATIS
Description: Samples were evaluated by flow cytometry analysis against Jurkat and human Pan-T cells (FIG. 1B) as well as by Octet against recombinant human CD3 proteins to evaluate apparent affinities and binding off-rates (Table 6, infra).

recombinant CD3 proteins [13] = target: T2, recombinant CD3 proteins; assay: Octet BLI, recombinant CD3; Full R^2 0.951
recombinant CD3 proteins [14] = target: T2, recombinant CD3 proteins; assay: Octet BLI, recombinant CD3; Full R^2 0.999

T1 sequence (P07766 23-207, chain 1 of 4): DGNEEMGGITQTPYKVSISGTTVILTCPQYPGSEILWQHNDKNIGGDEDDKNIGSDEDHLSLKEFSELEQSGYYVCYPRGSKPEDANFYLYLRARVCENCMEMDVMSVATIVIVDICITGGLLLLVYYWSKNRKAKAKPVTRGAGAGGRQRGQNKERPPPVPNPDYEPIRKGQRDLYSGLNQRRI
T1 sequence (P09693 23-182, chain 2 of 4): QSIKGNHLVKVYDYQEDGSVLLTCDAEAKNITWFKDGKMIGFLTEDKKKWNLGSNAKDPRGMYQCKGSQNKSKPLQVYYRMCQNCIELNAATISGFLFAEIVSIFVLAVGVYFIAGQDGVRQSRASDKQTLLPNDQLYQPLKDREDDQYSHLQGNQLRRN
T1 sequence (P04234 22-171, chain 3 of 4): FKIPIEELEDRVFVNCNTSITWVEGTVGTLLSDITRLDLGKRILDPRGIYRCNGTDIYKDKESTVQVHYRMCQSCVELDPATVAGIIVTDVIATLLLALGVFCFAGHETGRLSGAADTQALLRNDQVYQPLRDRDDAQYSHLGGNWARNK
T1 sequence (P20963 22-164, chain 4 of 4): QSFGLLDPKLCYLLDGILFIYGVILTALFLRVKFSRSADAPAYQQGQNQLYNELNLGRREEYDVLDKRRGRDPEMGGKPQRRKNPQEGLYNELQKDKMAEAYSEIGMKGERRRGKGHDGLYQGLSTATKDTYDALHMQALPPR

B1: Control Humanized anti-CD3 (high affinity) scFv-Fc knob/TM (bispecific antibody)
scFv: EVQLVESGGGLVQPGGSLRLSCAASGFTFSTYAMNWVRQAPGKGLEWVGRIRSKYNNYATYYADSVKGRFTISRDDSKNTLYLQMNSLRAEDTAVYYCVRHGNFGDSYVSWFAYWGQGTLVTVSSGKPGSGKPGSGKPGSGKPGSQAVVTQEPSLTVSPGGTVTLTCGSSTGAVTTSNYANWVQQKPGKSPRGLIGGTNKRAPGVPARFSGSLLGGKAALTISGAQPEDEADYYCALWYSNHWVFGGGTKLTVLGGGGSDKTHTCPPCPAPEFEGGPSVFLFPPKPKDTLMISRTPEVTCVVVDVSHEDPEVKFNWYVDGVEVHNAKTKPREEQYNSTYRVVSVLTVLHQDWLNGKEYKCKVSNKALPASIEKTISKAKGQPREPQVYTLPPCREEMTKNQVSLWCLVKGFYPSDIAVEWESNGQPENNYKTTPPVLDSDGSFFLYSKLTVDKSRWQQGNVFSCSVMHEALHNHYTQKSLSLSPGK
heavy: EVQLVQSGAEVKKPGSSVKVSCKASGYTITDSNIHWVRQAPGQSLEWIGYIYPYNGGTDYNQKFKNRATLTVDNPTNTAYMELSSLRSEDTAFYYCVNGNPWLAYWGQGTLVTVSSASTKGPSVFPLAPSSKSTSGGTAALGCLVKDYFPEPVTVSWNSGALTSGVHTFPAVLQSSGLYSLSSVVTVPSSSLGTQTYICNVNHKPSNTKVDKRVEPKSCDKTHTCPPCPAPEFEGGPSVFLFPPKPKDTLMISRTPEVTCVVVDVSHEDPEVKFNWYVDGVEVHNAKTKPREEQYNSTYRVVSVLTVLHQDWLNGKEYKCKVSNKALPASIEKTISKAKGQPREPQVCTLPPSREEMTKNQVSLSCAVKGFYPSDIAVEWESNGQPENNYKTTPPVLDSDGSFFLVSKLTVDKSRWQQGNVFSCSVMHEALHNRFTQKSLSLSPGK
light: DIQLTQSPSTLSASVGDRVTITCRASESLDNYGIRFLTWFQQKPGKAPKLLMYAASNQGSGVPSRFSGSGSGTEFTLTISSLQPDDFATYYCQQTKEVPWSFGQGTKVEVKRTVAAPSVFIFPPSDEQLKSGTASVVCLLNNFYPREAKVQWKVDNALQSGNSQESVTEQDSKDSTYSLSSTLTLSKADYEKHKVYACEVTHQGLSSPVTKSFNRGEC
In the case of B1, the “% Positive” value [1] is reported as 99.4%, the gMFI [1] is reported as 66400 gMFI and the “% Positive” value [2] is reported as 99.4%. The gMFI [2] was 178000 gMFI, the gMFI [3] was 15500 gMFI and the gMFI [4] was 21600 gMFI. For the same binder, the Kd (recombinant CD3 proteins [5]) was 44.9 nM, the koff (recombinant CD3 proteins [5]) was 0.0111 s⁻¹ and the kon (recombinant CD3 proteins [5]) was 248000 M⁻¹ s⁻¹. It also gave a Kd (recombinant CD3 proteins [6]) of 39.5 nM, a koff (recombinant CD3 proteins [6]) of 0.0102 s⁻¹ and a kon (recombinant CD3 proteins [6]) of 259000 M⁻¹ s⁻¹. For the same binder, the “Jurkat WT/KO (Fold)” value [7] was 4 fold and the “Jurkat WT/KO (Fold)” value [8] was 5.2 fold.

B2: Control Humanized anti-CD3 (low affinity) scFv-Fc knob/TM (bispecific antibody)
scFv: EVQLVESGGGLVQPGGSLRLSCAASGFTFSTYAMNWVRQAPGKGLEWVGRIRSKYNNYATYYADSVKGRFTISRDDSKNTLYLQMNSLRAEDTAVYYCVRHGNFGDSYVSWFDYWGQGTLVTVSSGKPGSGKPGSGKPGSGKPGSQAVVTQEPSLTVSPGGTVTLTCGSSTGAVTTSNYANWVQQKPGKSPRGLIGGTNKRAPGVPARFSGSLLGGKAALTISGAQPEDEADYYCALWYSNHWVFGGGTKLTVLGGGGSDKTHTCPPCPAPEFEGGPSVFLFPPKPKDTLMISRTPEVTCVVVDVSHEDPEVKFNWYVDGVEVHNAKTKPREEQYNSTYRVVSVLTVLHQDWLNGKEYKCKVSNKALPASIEKTISKAKGQPREPQVYTLPPCREEMTKNQVSLWCLVKGFYPSDIAVEWESNGQPENNYKTTPPVLDSDGSFFLYSKLTVDKSRWQQGNVFSCSVMHEALHNHYTQKSLSLSPGK
heavy: EVQLVQSGAEVKKPGSSVKVSCKASGYTITDSNIHWVRQAPGQSLEWIGYIYPYNGGTDYNQKFKNRATLTVDNPTNTAYMELSSLRSEDTAFYYCVNGNPWLAYWGQGTLVTVSSASTKGPSVFPLAPSSKSTSGGTAALGCLVKDYFPEPVTVSWNSGALTSGVHTFPAVLQSSGLYSLSSVVTVPSSSLGTQTYICNVNHKPSNTKVDKRVEPKSCDKTHTCPPCPAPEFEGGPSVFLFPPKPKDTLMISRTPEVTCVVVDVSHEDPEVKFNWYVDGVEVHNAKTKPREEQYNSTYRVVSVLTVLHQDWLNGKEYKCKVSNKALPASIEKTISKAKGQPREPQVCTLPPSREEMTKNQVSLSCAVKGFYPSDIAVEWESNGQPENNYKTTPPVLDSDGSFFLVSKLTVDKSRWQQGNVFSCSVMHEALHNRFTQKSLSLSPGK
light: DIQLTQSPSTLSASVGDRVTITCRASESLDNYGIRFLTWFQQKPGKAPKLLMYAASNQGSGVPSRFSGSGSGTEFTLTISSLQPDDFATYYCQQTKEVPWSFGQGTKVEVKRTVAAPSVFIFPPSDEQLKSGTASVVCLLNNFYPREAKVQWKVDNALQSGNSQESVTEQDSKDSTYSLSSTLTLSKADYEKHKVYACEVTHQGLSSPVTKSFNRGEC
B2 was tested, and the “% Positive” value [1] was 1.5%, the gMFI [1] was 2070 gMFI and the “% Positive” value [2] was 7.9%. The gMFI [2] was 3410 gMFI, the Kd (recombinant CD3 proteins [9]) was 4.27 nM and the koff (recombinant CD3 proteins [9]) was 5.33e-05 s⁻¹. It also gave a kon (recombinant CD3 proteins [9]) of 12500 M⁻¹ s⁻¹, a gMFI [3] of 1920 gMFI and a gMFI [4] of 2090 gMFI. For the same binder, the Kd (recombinant CD3 proteins [10]) was 4.38 nM, the koff (recombinant CD3 proteins [10]) was 5.48e-05 s⁻¹ and the kon (recombinant CD3 proteins [10]) was 12500 M⁻¹ s⁻¹. For the same binder, the “Jurkat WT/KO (Fold)” value [7] was 0.9 fold and the “Jurkat WT/KO (Fold)” value [8] was 1 fold.

B3: ABL-CD3-16 (antibody, V domains shown)
VH: EVQLVESGGGLVQPGGSLRLSCAASGFTFSRYWMTWVRQAPGKGLEWVANIKEDGSEKYCVDSVKGRFTISRDNAKNSLYLQLNSLRAEDTAVYYCARERRTGYFDYWGQGTLVTVSS
VL: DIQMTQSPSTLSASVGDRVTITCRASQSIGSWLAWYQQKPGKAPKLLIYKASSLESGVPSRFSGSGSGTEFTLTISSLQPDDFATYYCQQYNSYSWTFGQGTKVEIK
notes: Chimeric hybridoma mAb: human V, CH1, upper hinge; mouse middle hinge, CH2, CH3
For B3, the Kd [11] was 29.5 nM, the Response [11] was 0.19 and the koff [11] was 0.00153 s⁻¹. The kon [11] was 51900 M⁻¹ s⁻¹, the Kd [12] was less than 1 pM and the koff [12] was less than 1e-07 s⁻¹. For the same binder, the kon [12] was 36200 M⁻¹ s⁻¹.

B4: CD3 × CD33-BspAb123 (bispecific antibody)
chain 1: QTVVTQEPSFSVSPGGTVTLTCGLNSGSVSTSYYPSWYQQTPGQTPRTLIYSTNTRSSGVPDRFSGSILGNKAALTITGAQADDESDYYCVLYMGSGIWVFGCGTKLTVLGGGGSGGGGSGGGGSGGGGSQVQLVQSGAEVKKPGASLKVSCKASGYTFTSYYMHWVRQAPGQCLEWMGIINPSNGNTISAQKFQGRVTMTRDTSTSTVYMEMSSLRSEDTAVYYCVRSWGYYVMDVWGQGTTVTVSSDKTHTCPPCPAPEFEGGPSVFLFPPKPKDTLMISRTPEVTCVVVDVSHEDPEVKFNWYVDGVEVHNAKTKPREEQYNSTYRVVSVLTVLHQDWLNGKEYKCKVSNKALPASIEKTISKAKGQPREPQVYTLPPCREEMTKNQVSLWCLVKGFYPSDIAVEWESNGQPENNYKTTPPVLDSDGSFFLYSKLTVDKSRWQQGNVFSCSVMHEALHNHYTQKSLSLSPGK
chain 2: EVQLVQSGAEVKKPGSSVKVSCKASGYTITDSNIHWVRQAPGQSLEWIGYIYPYNGGTDYNQKFKNRATLTVDNPTNTAYMELSSLRSEDTAFYYCVNGNPWLAYWGQGTLVTVSSASTKGPSVFPLAPSSKSTSGGTAALGCLVKDYFPEPVTVSWNSGALTSGVHTFPAVLQSSGLYSLSSVVTVPSSSLGTQTYICNVNHKPSNTKVDKRVEPKSCDKTHTCPPCPAPEFEGGPSVFLFPPKPKDTLMISRTPEVTCVVVDVSHEDPEVKFNWYVDGVEVHNAKTKPREEQYNSTYRVVSVLTVLHQDWLNGKEYKCKVSNKALPASIEKTISKAKGQPREPQVCTLPPSREEMTKNQVSLSCAVKGFYPSDIAVEWESNGQPENNYKTTPPVLDSDGSFFLVSKLTVDKSRWQQGNVFSCSVMHEALHNRFTQKSLSLSPGK
chain 3: DIQLTQSPSTLSASVGDRVTITCRASESLDNYGIRFLTWFQQKPGKAPKLLMYAASNQGSGVPSRFSGSGSGTEFTLTISSLQPDDFATYYCQQTKEVPWSFGQGTKVEVKRTVAAPSVFIFPPSDEQLKSGTASVVCLLNNFYPREAKVQWKVDNALQSGNSQESVTEQDSKDSTYSLSSTLTLSKADYEKHKVYACEVTHQGLSSPVTKSFNRGEC
Binder B4 has a Kd (recombinant CD3 proteins [13]) of 12 nM, a koff (recombinant CD3 proteins [13]) of 0.00103 s⁻¹ and a kon (recombinant CD3 proteins [13]) of 85500 M⁻¹ s⁻¹.

B5: CD3 × CD33-BspAb125 (bispecific antibody)
chain 1: not shown
chain 2: EVQLVQSGAEVKKPGSSVKVSCKASGYTITDSNIHWVRQAPGQSLEWIGYIYPYNGGTDYNQKFKNRATLTVDNPTNTAYMELSSLRSEDTAFYYCVNGNPWLAYWGQGTLVTVSSASTKGPSVFPLAPSSKSTSGGTAALGCLVKDYFPEPVTVSWNSGALTSGVHTFPAVLQSSGLYSLSSVVTVPSSSLGTQTYICNVNHKPSNTKVDKRVEPKSCDKTHTCPPCPAPEFEGGPSVFLFPPKPKDTLMISRTPEVTCVVVDVSHEDPEVKFNWYVDGVEVHNAKTKPREEQYNSTYRVVSVLTVLHQDWLNGKEYKCKVSNKALPASIEKTISKAKGQPREPQVCTLPPSREEMTKNQVSLSCAVKGFYPSDIAVEWESNGQPENNYKTTPPVLDSDGSFFLVSKLTVDKSRWQQGNVFSCSVMHEALHNRFTQKSLSLSPGK
chain 3: DIQLTQSPSTLSASVGDRVTITCRASESLDNYGIRFLTWFQQKPGKAPKLLMYAASNQGSGVPSRFSGSGSGTEFTLTISSLQPDDFATYYCQQTKEVPWSFGQGTKVEVKRTVAAPSVFIFPPSDEQLKSGTASVVCLLNNFYPREAKVQWKVDNALQSGNSQESVTEQDSKDSTYSLSSTLTLSKADYEKHKVYACEVTHQGLSSPVTKSFNRGEC
B5 showed a Kd (recombinant CD3 proteins [14]) of 319 nM, a koff (recombinant CD3 proteins [14]) of 0.00375 s⁻¹ and a kon (recombinant CD3 proteins [14]) of 11800 M⁻¹ s⁻¹.
